Assay results published in patent US20090203595A1 (ZENSUN SHANGHAI SCIENCE AND TECHNOLOGY, published 2009).

B1: neuregulin (the 177-237 amino acids fragment of neuregulin1 β2) (ligand)
chain: SHLVKCAEKEKTFCVNGGECFMVKDLSNPSRYLCKCPNEFTGDRCQNYVMASFYKAEELYQ
notes: also called NRG; NRG-1β
B2: neuregulin variant L3A (ligand)
chain: SHAVKCAEKEKTFCVNGGECFMVKDLSNPSRYLCKCPNEFTGDRCQNYVMASFYKAEELYQ
B3: neuregulin variant D43A (ligand)
chain: SHLVKCAEKEKTFCVNGGECFMVKDLSNPSRYLCKCPNEFTGARCQNYVMASFYKAEELYQ

Columns and labels:
[1] = target: T1, ErbB2&ErbB4 co-expressed on COS7 cells (UniProt P04626 23-1255; Q15303 26-1308, limits assumed); assay: competition of bound radiolabeled ligands on COS7 cells co-expressing ErbB2&ErbB4
T1 construct: whole, on cells; Both receptors are co-expressed on the same cells, and the numbers are for these cells, not for a single receptor; also called COS7 cells (ErbB2&ErbB4 co-expression)
Experimental: (§1) To study the receptor binding affinity of neuregulin and its mutations, ErbB2&ErbB3 or ErbB2&ErbB4 co-expressing COS7 are used. The cells are grown to 80% confluence. In the afternoon, after the cells reach 80% confluence, the media is changed to serum free media. Then, after 24 hours, the cells are harvested for receptor binding affinity assays.

[2] = target: T1, ErbB2&ErbB4 co-expressed on COS7 cells; assay: receptor binding affinity assay on COS7 cells co-expressing ErbB2&ErbB4
Experimental: as §1

[3] = target: T2, ErbB2&ErbB3 co-expressed on COS7 cells (UniProt P04626 23-1255; P21860 20-1342, limits assumed); assay: receptor binding affinity assay on COS7 cells co-expressing ErbB2&ErbB3
T2 construct: whole, on cells; Both receptors are co-expressed on the same cells, and the numbers are for these cells, not for a single receptor; also called COS7 cells (ErbB2&ErbB3 co-expression)
Experimental: as §1

[4] = target: T2, ErbB2&ErbB3 co-expressed on COS7 cells; assay: competition of bound radiolabeled ligands on COS7 cells co-expressing ErbB2&ErbB3
Experimental: as §1

Binder | EC50 [1] [nM] | Kd [2] [nM] | Kd [3] [nM] | EC50 [4] [nM]
B1 | 132 | 0.282 | 1.41 | 113
B2 | – | 1.06 | 1.15 | –
B3 | 40.7 | – | – | 149
